The target of experiment [1] is T1, human melanocortin 1 receptor (human, UniProt Q01726 1-317).
T1 construct: whole, on cells; also called hMC1R; hMC1 receptor
In words: competition binding vs [125I]-NDP-α-MSH, whole HEK293 cells stably expressing the receptor.

The target of experiment [2] is T1, human melanocortin 1 receptor. In words: cell-based or functional assay.
For experiment [3] the target is unchanged. In words: competition binding vs [125I]-NDP-α-MSH, A375 human melanoma cells.

T1 sequence (Q01726 whole entry): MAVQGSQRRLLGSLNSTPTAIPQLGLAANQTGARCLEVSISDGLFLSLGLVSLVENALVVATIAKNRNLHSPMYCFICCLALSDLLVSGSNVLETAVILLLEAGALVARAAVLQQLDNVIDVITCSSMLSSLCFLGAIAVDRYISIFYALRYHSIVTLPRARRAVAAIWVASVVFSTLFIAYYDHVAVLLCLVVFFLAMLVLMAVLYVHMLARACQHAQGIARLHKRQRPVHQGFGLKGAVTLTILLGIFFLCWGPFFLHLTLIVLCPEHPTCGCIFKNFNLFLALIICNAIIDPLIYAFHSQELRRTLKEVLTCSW

B1: Peptide 32: Ac-Nle-c[Asp-(NMe)His-(NMe)nal-(NMe)Arg-(NMe)Trp-(NMe)Lys]-NH2 (peptide)
peptide: LDHXRWK
modifications: N-terminal acetyl; Nle at 4; D-Nal(2') (nal) at 7; side-chain lactam Asp5-Lys10; C-terminal amide; backbone N-methyl on His6, nal7, Arg8, Trp9 and Lys10 (α-MSH 4-10 numbering)
notes: also called Penta-N-methylated compound 32
For orientation: IC50 means the concentration at which inhibition is half-maximal. The low end stands for greater potency in that assay, the high end for weaker potency in that assay. Take B1: in experiment [1], the IC50 worked out at 68 nM.

B2: Peptide 15: Ac-Nle-c[Asp-(NMe)His-nal-(NMe)Arg-Trp-Lys]-NH2 (peptide)
peptide: LDHXRWK
modifications: N-terminal acetyl; Nle at 4; D-Nal(2') (nal) at 7; side-chain lactam Asp5-Lys10; C-terminal amide; backbone N-methyl on His6 and Arg8 (α-MSH 4-10 numbering)
In the case of B2, the “EC50 (cAMP)” value in experiment [2] stood at 22 nM. The molecule further gave an IC50 in experiment [3] of 14.8 nM.

B3: Peptide 28: Ac-Nle-c[Asp-(NMe)His-nal-(NMe)Arg-(NMe)Trp-(NMe)Lys]-NH2 (peptide)
peptide: LDHXRWK
modifications: N-terminal acetyl; Nle at 4; D-Nal(2') (nal) at 7; side-chain lactam Asp5-Lys10; C-terminal amide; backbone N-methyl on His6, Arg8, Trp9 and Lys10 (α-MSH 4-10 numbering)
For the molecule B3, the “EC50 (cAMP)” value in experiment [2] turned out to be 20 nM.
